Results: article PMC8309162, “Identification and Functional Characterization of Genes Encoding Phenylacetaldehyde Reductases That Catalyze the Last Step in the Biosynthesis of Hydroxytyrosol in Olive” (Plants, 2021)

System: T1, O=CCc1ccc(O)c(O)c1
T1 construct: tag cleavage not mentioned
Assay: HPLC quantification of hydroxytyrosol formed
Format: biochemical, Olea europaea
Settings: 0.25-8 mM substrate, Michaelis-Menten, standard assay 5 mM NADPH, 50 mM Tris-HCl pH 8.0, 30 °C (pH of the kinetic run not stated; optimum pH 6.5)

OePAR1.2 (Olea europaea), sequence (chain, as listed by the source): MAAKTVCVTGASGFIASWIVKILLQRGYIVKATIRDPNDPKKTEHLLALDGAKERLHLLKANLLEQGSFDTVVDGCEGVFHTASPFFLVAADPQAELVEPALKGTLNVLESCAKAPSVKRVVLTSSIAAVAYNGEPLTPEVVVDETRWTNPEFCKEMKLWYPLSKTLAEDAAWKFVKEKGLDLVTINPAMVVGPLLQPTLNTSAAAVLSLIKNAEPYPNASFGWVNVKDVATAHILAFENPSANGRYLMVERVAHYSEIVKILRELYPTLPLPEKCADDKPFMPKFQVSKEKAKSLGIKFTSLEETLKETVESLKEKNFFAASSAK
OePAR1.1 (Olea europaea), sequence (chain, as listed by the source): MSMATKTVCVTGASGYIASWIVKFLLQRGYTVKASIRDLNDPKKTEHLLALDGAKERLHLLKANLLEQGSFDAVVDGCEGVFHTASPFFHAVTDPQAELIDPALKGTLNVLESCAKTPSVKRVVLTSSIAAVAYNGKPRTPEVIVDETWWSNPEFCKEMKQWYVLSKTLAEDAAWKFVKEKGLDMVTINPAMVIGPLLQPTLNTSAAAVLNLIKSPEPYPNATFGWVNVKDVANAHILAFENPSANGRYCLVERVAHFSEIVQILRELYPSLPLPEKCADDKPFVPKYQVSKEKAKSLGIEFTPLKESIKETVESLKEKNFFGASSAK

Substance	Km [mM]
OePAR1.1 (Olea europaea)	0.6
OePAR1.2 (Olea europaea)	0.8
